In patent US20190185560A1 (Novo Nordisk, published 2019):
Residue numbers refer to the chain shown, from its start. Names may count otherwise.

T1: cynomolgus TREM-1 on cells (TE426.27 reporter cell line) (cynomolgus monkey)
T1 chain: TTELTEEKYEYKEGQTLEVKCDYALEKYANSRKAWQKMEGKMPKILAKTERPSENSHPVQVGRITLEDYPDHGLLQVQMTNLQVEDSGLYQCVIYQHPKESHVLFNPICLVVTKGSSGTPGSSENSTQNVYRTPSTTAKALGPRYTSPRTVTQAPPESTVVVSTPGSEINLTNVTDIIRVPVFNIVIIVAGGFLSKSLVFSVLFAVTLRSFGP

T2: cynomolgus TREM-1-Fc (cynomolgus monkey)
T2 construct: also called cTREM-1
T2 chain: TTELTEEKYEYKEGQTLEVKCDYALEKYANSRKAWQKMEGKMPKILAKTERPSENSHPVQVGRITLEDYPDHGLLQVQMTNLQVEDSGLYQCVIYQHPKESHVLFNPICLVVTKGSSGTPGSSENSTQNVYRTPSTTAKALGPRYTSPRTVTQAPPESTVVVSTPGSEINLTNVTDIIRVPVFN

B1: mAb 0170 (humanised TREM-1 antibody, mAb 0170 of WO2013/120553) (antibody, V domains shown)
VH: EVQLVESGGGLVQPGGSLKLSCAASGFTFSTYAMHWVRQASGKGLEWVGRIRTKSSNYATYYAASVKGRFTISRDDSKNTAYLQMNSLKTEDTAVYYCTRDMGIRRQFAYWGQGTLVTVSS
VL: DIVLTQSPDSLAVSLGERATINCRASESVDTFDYSFLHWYQQKPGQPPKLLIYRASNLESGVPDRFSGSGSGTDFTLTISSLQAEDVAVYYCQQSNEDPYTFGQGTKLEIKR
notes: also called mAb 170
B2: mAb 0317 (mAb 0170 variant, light chain E27Q, E97S) (antibody, human IgG4 S228P, kappa, V domains shown)
VH: B1 VH
VL: B1 VL with E27Q, E97S
notes: Charge patch mutations
B3: mAb 0330 (mAb 0170 variant, light chain F32A, E27Q, E97Q) (antibody, human IgG4 S228P, kappa, V domains shown)
VH: B1 VH
VL: B1 VL with E27Q, F32A, E97Q
B4: mAb 0319 (mAb 0170 variant, light chain E97S) (antibody, human IgG4 S228P, kappa, V domains shown)
VH: B1 VH
VL: B1 VL with E97S
notes: Charge patch mutation
B5: mAb 0318 (mAb 0170 variant, light chain E27Q, E97Q) (antibody, human IgG4 S228P, kappa, V domains shown)
VH: B1 VH
VL: B1 VL with E27Q, E97Q
notes: Charge patch mutations
B6: mAb 0322 (mAb 0170 variant, light chain F32A) (antibody, human IgG4 S228P, kappa, V domains shown)
VH: B1 VH
VL: B1 VL with F32A
B7: Fab region of mAb 0170 (Fab, V domains shown)
VH: B1 VH
VL: B1 VL
notes: Crystallised alone; packs as Fab-Fab dimers; also called Fab 0170; mAb 170 Fab region
B8: mAb 0321 (mAb 0170 variant, light chain E27Q) (antibody, human IgG4 S228P, kappa, V domains shown)
VH: B1 VH
VL: B1 VL with E27Q
notes: Charge patch mutation
B9: mAb 0325 (mAb 0170 variant, heavy chain N57S) (antibody, human IgG4 S228P, kappa, V domains shown)
VH: B1 VH with N57S
VL: B1 VL
B10: mAb 0333 (mAb 0170 variant, heavy chain A59Y, light chain F32A, E27Q, E97Q) (antibody, human IgG4 S228P, kappa, V domains shown)
VH: B1 VH with A59Y
VL: B1 VL with E27Q, F32A, E97Q
B11: mAb 0320 (mAb 0170 variant, light chain E97Q) (antibody, human IgG4 S228P, kappa, V domains shown)
VH: B1 VH
VL: B1 VL with E97Q
notes: Charge patch mutation
B12: mAb 0323 (mAb 0170 variant, light chain F32S) (antibody, human IgG4 S228P, kappa, V domains shown)
VH: B1 VH
VL: B1 VL with F32S
B13: mAb 0332 (mAb 0170 variant, heavy chain A59Y, light chain E27Q, E97Q) (antibody, human IgG4 S228P, kappa, V domains shown)
VH: B1 VH with A59Y
VL: B1 VL with E27Q, E97Q
B14: mAb 0324 (mAb 0170 variant, heavy chain A59Y) (antibody, human IgG4 S228P, kappa, V domains shown)
VH: B1 VH with A59Y
VL: B1 VL

Biological target: T1, cynomolgus TREM-1 on cells (TE426.27 …)
Assay: cell-based or functional assay

IC50: inhibition of luminescence of TE426.27 cynomolgus TREM-1 reporter cells stimulated with PGN and recombinant PGLYRP1 [nM] | Binder
6 | B1
9.5 | B2
10.7 | B3
17.7 | B4
5.6 | B5
5.9 | B6

Biological target: the molecule itself
Assay: X-ray crystal structure of the Fab region of mAb 0170 (self-interaction in the crystal)
Protocol: The crystal was transferred to a drop consisting of 2 μL 35% (w/v) PEG3350, 200 mM K₂HPO₄ and mounted in a 0.2 mm diameter litholoop (Molecular Dimensions Limited) and flash-cooled in liquid nitrogen.
Data were collected to a resolution of 2.40 Å. […] The search models were structures of the heavy chain from the pdb entry 1AD0.pdb (85% identity) and the light chain from the pdb entry 2QRG (94% identity).

Binder | binding result
B7 | binds

Biological target: T2, cynomolgus TREM-1-Fc
Assay: SPR (ProteOn), antibody captured via anti-Fc, TREM-1-Fc as analyte, 1:1 Langmuir fit, 25 C
Protocol: Binding studies were performed on a ProteOn Analyzer (BioRad) that measures molecular interactions in real time through surface plasmon resonance. Experiments were run at 25° C. and the samples were stored at 15° C. in the sample compartment. The signal (RU, response units) reported by the ProteOn is directly correlated to the mass on the individual sensor chip surfaces in the six parallel flow cells. Anti-human Fc monoclonal or anti-murine Fc polyclonal antibody from Biacore human or mouse Fc capture kits were immobilized in horizontal direction onto flow cells of a GLM sensor chip according to the manufacturer's instructions. The final immobilization level of capture antibody was approximately 2600-6000 RU in each experiment. The capture of purified monoclonal mouse or recombinantly expressed anti-hTREM-1 antibodies was conducted by diluting the antibodies to 5-10 nM into running buffer (10 mM Hepes 0.15 M NaCl, 5 mM EDTA, 0.05% surfactant P20, pH 7.4) followed by injection in vertical direction at 30 μL/min for 60 sec, creating reference interspots adjacent to all flow cells with only anti-Fc antibody immobilized. […] Binding of hTREM-1 or cTREM-1 proteins was conducted by injecting analyte (antigen) over all flow cells in horizontal direction to allow for comparative analyses of binding to different captured anti-TREM-1 antibodies relative to binding to the reference interspot. hTREM-1 or cTREM-1 proteins were diluted serially 1:3 to 1.2-100 nM or into running buffer, injected at 100 μL/min for 250 s and allowed to dissociate for 600 s. The GLM surface was regenerated after each injection cycle of analyte via two 18 s injections of 10 mM Glycine, pH 1.7 and 50 mM NaOH at 100 μL/min. This regeneration step removed the anti-TREM-1 antibody and any bound TREM-1 protein from the immobilized capture antibody surface and allowed for the subsequent binding of the next interaction sample pair.

Kd [nM] | Binder
2 | B1
2 | B8
3 | B2
0.1 | B3
1 | B9
0.3 | B10
2 | B4
3 | B11
0.6 | B12
4 | B13
2 | B5
4 | B14
0.1 | B6
